Results: the DeepSol protein solubility set

Test: soluble on expression in E. coli; label from the status in PepcDB or PDB records

Sequence	soluble on expression in E. coli
ADRNLRDLLAPWVPDAPSRALREMTLDSRVAAAGDLFVAVVGHQADGRRYIPQAIAQGVAAIIAEAKDEATDGEIREMHGVPVIYLSQLNERLSALAGRFYHEPSDNLRLVGVTGTNGKTTTTQLLAQWSQLLGEISAVMGTVGNGLLGKVIPTENTTGSAVDVQHELAGLVDQGATFCAMEVSSHGLVQHRVAALKFAASVFTNLSRDHLDYHGDMEHYEAAKWLLYSEHHCGQAIINADDEVGRRWLAKLPDAVAVSMEDHINPNCHGRWLKATEVNYHDSGATIRFSSSWGDGEIESHLMGAFNVSNLLLALATLLALGYPLADLLKTAARLQPVCGRMEVFTAPGKPTVVVDYAHTPDALEKALQAARLHCAGKLWCVFGCGGDRDKGKRPLMGAIAEEFADVAVVTDDNPRTEEPRAIINDILAGMLDAGHAKVMEGRAEAVTCAVMQAKENDVVLVAGKGHEDYQIVGNQRLDYSDRVTVARLLGVIARSHH	soluble
MPGSPRPAPSWVLLLRLLALLRPPGLGEACSCAPAHPQQHICHSALVIRAKISSEKVVPASADPADTEKMLRYEIKQIKMFKGFEKVKDVQYIYTPFDSSLCGVKLEANSQKQYLLTGQVLSDGKVFIHLCNYIEPWEDLSLVQRESLNHHYHLNCGCQITTCYTVPCTISAPNECLWTDWLLERKLYGYQAQHYVCMKHVDGTCSWYRGHLPLRKEFVDIVQP	soluble
GPGSMPSITQETLRRRAEFVRTGGRGSVRRTVKVAHRNTGDDKKVQQVLKRLNVSPFNDVDDAVLYRHDGTAYYFEKPKVQASMQSQCFVVSGAYDVKEASEVPS	not soluble
TEQPCVEKAPAYQRFHALAQPGLPGLVLPYKYQVLVEMFRSMDTIVSMLHNRSETVTFAKVKQGVQEMMRKRFEERNVGQIKTVYPTSYRFRQECNVPTFKDSIKRSDYQLTIEPLLGQEAGGATQLTATCLLQRRQVFRQNLVERVKEQHKVFLASLNPPMAVPDDQLTRWHPRFNVDEVPDIEPAELPQPPVTEK	soluble
MMKQNPILITGGTGTVGSRIASRLIKLGYRVRIASRKKGALADAEYVYFNWKYASSFTPALEQVKQIYLVAPVGVFDPAPYVLPFLKEAKRLGAKRVVMQSASVVSENGPVFGALHQAVREFPEWTVLRPSYFMQNFINVQHRMSIQTEGRITTASGEGKLGFIDADDIAETAVRALIDDVPHQTHHILTGPEALSYAEAAEIIGAAAGRRVEHVSISRSELQHKMEAGGLPADYAHFMAKLDEAISHGAEHRVTDTVKRVTGKEPRSLSEFAAAHAAYWTSFWTELEHHHHHH	not soluble
MEEWVREQYGMRVERLERSGRHAAFWHRQERFLLVPADGQSEAEMEERQQMSRYLRAKGVDGVGELVKTTSGTYIASYNGQPLALVRAPLPASRFRSLGRELAVMHECGRTCPWPIVACRRIGQWRELWAKRIDQMEAFWSSKLASGPSSLFDRLFIESFPYYLGLAENAVQYVADTEIDEEPGRIDYAAFCHERLPEAKWVGGGEAKLPTDWVYDHCARDLAEWVRHLYEKSGLGCQRAVRQFFQEYEHAAPLSPFAWRLVYARLLFPLSYFECVEAYYIAVDESERTRREGELRRLLDRSHEYERFLASFAKIAGISNRIRLPAVEWLPPA	not soluble
MKRIGVVLGRREATPLEFWVGVEGDGLLRLDDLVVVEGFHPQVGQVRFFGMVDHVAKVHEGESFDTDTFLAVEGKIPVSLAYVAHVSVTRILPEEFFPPDPGSPVYLAQEEDLELALYYDAMRNQRGSTKLPAGLLKNGEVAYLNLEFLNGVKGGHVNISGISGVAAKTSYATFLLKSLLESGVLEDAHQARVLLFNVKGEDLFFLDKPNARLTEEARKAYARLGLPATPFQSVAFLAPPKKAGYLPDVDTRLEGVEAYHWDLVQFCQRGLLPFLFADRAAMTNLGFLVAHVTEKLKRLAEGQKGPHLQVEDWPGGEASEGMSFDQLGKARLKSFSDLVRYLEYKLLGPETGEGEGDRGWTARQAKGTLEAFVRRLRSSVENVAHLVRGDRPGSPPDPLSGKAQVHVVDLAKLSPQAQMFVVGSLLKDLFERKERGQYRGRVFIVLDELNKYAPREEESPIKDVLLDIAERGRSLGVILIGAQQTASEVERRVVGNAAIRVVGRLDAAEAERPEYRYLPTSFRQRALILPQGAVILHQPEIPVPLLVHFPFPAWATKREEVLEDNSAEALRREFFR	soluble
MWTDAGGQVHEAASGDVRIASLVPSITELLFDLGLADQLVARTGFCIHPEPAVRAVAKVGGTKDVKLDRLRALAPTHVVVNIDENRRETVDEIRTFVPHVIVTHPCAPEDNLALYRLLGGIFGRRPQAEALVGQLRGELDAIQAQTWPARRVLYAIWQDPWMTVSRATYISRMLALVNWATWPDDADTSDTPAACVDGDCSRPNAPGERYPTFRWSDALVRELDAVLLSTEPYRFTEDHADALERQIGKPVLLVDGEMLSWYGSRAVAGARYLRSLAQGFLEHHHHHH	soluble
